Reference: IntAct's records for PubMed 15601840

B1: Structural maintenance of chromosomes protein 6 (Homo sapiens), Q96SB8 (parent)
chain: MAKRKEENFSSPKNAKRPRQEELEDFDKDGDEDECKGTTLTAAEVGIIESIHLKNFMCHSMLGPFKFGSNVNFVVGNNGSGKSAVLTALIVGLGGRAVATNRGSSLKGFVKDGQNSADISITLRNRGDDAFKASVYGNSILIQQHISIDGSRSYKLKSATGSVVSTRKEELIAILDHFNIQVDNPVSVLTQEMSKQFLQSKNEGDKYKFFMKATQLEQMKEDYSYIMETKERTKEQIHQGEERLTELKRQCVEKEERFQSIAGLSTMKTNLESLKHEMAWAVVNEIEKQLNAIRDNIKIGEDRAARLDRKMEEQQVRLNEAEQKYKDIQDKLEKISEETNARAPECMALKADVVAKKRAYNEAEVLYNRSLNEYKALKKDDEQLCKRIEELKKSTDQSLEPERLERQKKISWLKERVKAFQNQENSVNQEIEQFQQAIEKDKEEHGKIKREELDVKHALSYNQRQLKELKDSKTDRLKRFGPNVPALLEAIDDAYRQGHFTYKPVGPLGACIHLRDPELALAIESCLKGLLQAYCCHNHADERVLQALMKRFYLPGTSRPPIIVSEFRNEIYDVRHRAAYHPDFPTVLTALEIDNAVVANSLIDMRGIETVLLIKNNSVARAVMQSQKPPKNCREAFTADGDQVFAGRYYSSENTRPKFLSRDVDSEISDLENEVENKTAQILNLQQHLSALEKDIKHNEELLKRCQLHYKELKMKIRKNISEIRELENIEEHQSVDIATLEDEAQENKSKMKMVEEHMEQQKENMEHLKSLKIEAENKYDAIKFKINQLSELADPLKDELNLADSEVDNQKRGKRHYEEKQKEHLDTLNKKKRELDMKEKELEEKMSQARQICPERIEVEKSASILDKEINRLRQKIQAEHASHGDREEIMRQYQEARETYLDLDSKVRTLKKFIKLLGEIMEHRFKTYQQFRRCLTLRCKLYFDNLLSQRAYCGKMNFDHKNETLSISVQPGEGNKAAFNDMRALSGGERSFSTVCFILSLWSIAESPFRCLDEFDVYMDMVNRRIAMDLILKMADSQRFRQFILLTPQSMSSLPSSKLIRILRMSDPERGQTTLPFRPVTQEEDDDQR
B2: Structural maintenance of chromosomes protein 5 (Schizosaccharomyces pombe (strain ATCC 38366 / 972)), O13710 (parent)
chain: MDGLRPSKRRKSNPLYSDYALGSIVRIKLVNFVTYDYCELFPGPYLNLIIGPNGTGKSTIVSAICIGLGWPPKLLGRAKEAREFIKYGKNTATIEIEMKYRDDETVTITRQISQDKSSSFSINREACATSSITSLMDTFNVQLNNLCHFLPQDRVAEFAQLDPYSRLMETERAIDHEGLLPAHEKLIDLRKREREILQNKNQGQSTLNSLKDRQQALEKEVNIFKEREKIKSYIEMLGLAKMLVIYREKTNVFNQLRADKKKLKKDLKDLVEEFQPILDKGEELRSDLKLKDDTFNDYSSASMELNTSNLRARASFSNFMENEKKLYEKVNTNRTLLRNANLTLNEAQQSVKSLTERQGPRPSDNGVQDLQEKMQEVNAEKLQHENEKLESSHELGSIRTLKAQKLIDLDNIKRELSYYNDATKRKLDFMSSAPGWEDAYQTYQLLKEYESAFEAPAYGPIYMNLKCKEKGFAALIEGFFRTDTFRTFIMSNYNDYLKLMDLITSKTKYTPTIREFSSERKKKIEDFEPPCSREKLQSFGFDGYVIDFLEGPEVVLVALCHMLKIHQIPIAKRELPPASVNALNNFRLANGDPVLKTYLAGSSIHLVFRSAYGDREITRRTDPLPSRSIYFSENVEMDLVKRKEEQLNAQLSQLENLQNEERKLQEKVNEHESLLSRTNDILSTLRKERDEKLIPIHEWQQLQERIEHQTLLLRQREKVPEQFAAEIEKNEDIRKENFEALMNSVLKVKENSIKATNNFEKMLGSRLNVIEAKYKLEKHEMDANQVNARLTEVQDRLKDITDKLASAREDAMSLYGSVVDSLQTQSSDRQTAITELNEEFATSSEVDNKISIEETKLKFMNVNSYVMEQYDARKKEIEELESKMSDFDQSVEELQDEMNSIKEDWVSKLEENVQCISDRFSKGMSGMGYAGEVRLGKSDDYDKWYIDILVQFREEEGLQKLTGQRQSGGERSVSTIMYLLSLQGLAIAPFRIVDEINQGMDPRNERVVHRHIVNSVCDNAVSQYFLVTPKLLPDLTYHRNLKVLCICNGAWLPATFRTSLSTYFEKLKKSALISSS
partner: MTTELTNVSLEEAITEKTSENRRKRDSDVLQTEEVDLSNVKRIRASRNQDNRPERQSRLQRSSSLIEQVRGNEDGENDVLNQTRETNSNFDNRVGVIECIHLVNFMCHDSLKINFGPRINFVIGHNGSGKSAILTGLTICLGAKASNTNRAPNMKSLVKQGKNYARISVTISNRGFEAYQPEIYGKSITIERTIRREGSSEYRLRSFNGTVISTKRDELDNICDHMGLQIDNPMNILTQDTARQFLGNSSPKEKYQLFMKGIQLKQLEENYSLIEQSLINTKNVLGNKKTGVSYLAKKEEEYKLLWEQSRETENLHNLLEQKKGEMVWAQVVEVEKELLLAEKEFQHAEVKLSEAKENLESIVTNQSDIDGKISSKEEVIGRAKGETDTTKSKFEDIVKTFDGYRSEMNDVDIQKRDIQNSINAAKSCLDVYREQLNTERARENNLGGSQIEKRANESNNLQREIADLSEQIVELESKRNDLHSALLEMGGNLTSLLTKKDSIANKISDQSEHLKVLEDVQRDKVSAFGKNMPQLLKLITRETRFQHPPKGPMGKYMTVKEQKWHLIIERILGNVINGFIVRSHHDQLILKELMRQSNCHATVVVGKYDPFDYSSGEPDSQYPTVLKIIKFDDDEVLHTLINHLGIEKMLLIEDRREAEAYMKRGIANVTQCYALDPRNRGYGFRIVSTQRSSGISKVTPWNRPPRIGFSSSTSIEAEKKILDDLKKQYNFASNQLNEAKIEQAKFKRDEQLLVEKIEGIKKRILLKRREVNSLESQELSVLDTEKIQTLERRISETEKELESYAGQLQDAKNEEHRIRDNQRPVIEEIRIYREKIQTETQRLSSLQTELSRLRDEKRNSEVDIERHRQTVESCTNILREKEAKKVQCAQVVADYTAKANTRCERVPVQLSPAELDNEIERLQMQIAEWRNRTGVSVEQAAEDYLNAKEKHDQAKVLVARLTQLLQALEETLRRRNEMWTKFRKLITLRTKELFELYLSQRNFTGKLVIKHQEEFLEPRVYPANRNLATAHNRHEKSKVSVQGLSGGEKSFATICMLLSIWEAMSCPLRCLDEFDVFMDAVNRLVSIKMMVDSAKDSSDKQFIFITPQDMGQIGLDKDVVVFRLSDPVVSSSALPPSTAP

Variants of: B1
Details: with smc5_human SMC5, Q8IY18
smc5_human SMC5, Q8IY18, sequence (Q8IY18 whole entry): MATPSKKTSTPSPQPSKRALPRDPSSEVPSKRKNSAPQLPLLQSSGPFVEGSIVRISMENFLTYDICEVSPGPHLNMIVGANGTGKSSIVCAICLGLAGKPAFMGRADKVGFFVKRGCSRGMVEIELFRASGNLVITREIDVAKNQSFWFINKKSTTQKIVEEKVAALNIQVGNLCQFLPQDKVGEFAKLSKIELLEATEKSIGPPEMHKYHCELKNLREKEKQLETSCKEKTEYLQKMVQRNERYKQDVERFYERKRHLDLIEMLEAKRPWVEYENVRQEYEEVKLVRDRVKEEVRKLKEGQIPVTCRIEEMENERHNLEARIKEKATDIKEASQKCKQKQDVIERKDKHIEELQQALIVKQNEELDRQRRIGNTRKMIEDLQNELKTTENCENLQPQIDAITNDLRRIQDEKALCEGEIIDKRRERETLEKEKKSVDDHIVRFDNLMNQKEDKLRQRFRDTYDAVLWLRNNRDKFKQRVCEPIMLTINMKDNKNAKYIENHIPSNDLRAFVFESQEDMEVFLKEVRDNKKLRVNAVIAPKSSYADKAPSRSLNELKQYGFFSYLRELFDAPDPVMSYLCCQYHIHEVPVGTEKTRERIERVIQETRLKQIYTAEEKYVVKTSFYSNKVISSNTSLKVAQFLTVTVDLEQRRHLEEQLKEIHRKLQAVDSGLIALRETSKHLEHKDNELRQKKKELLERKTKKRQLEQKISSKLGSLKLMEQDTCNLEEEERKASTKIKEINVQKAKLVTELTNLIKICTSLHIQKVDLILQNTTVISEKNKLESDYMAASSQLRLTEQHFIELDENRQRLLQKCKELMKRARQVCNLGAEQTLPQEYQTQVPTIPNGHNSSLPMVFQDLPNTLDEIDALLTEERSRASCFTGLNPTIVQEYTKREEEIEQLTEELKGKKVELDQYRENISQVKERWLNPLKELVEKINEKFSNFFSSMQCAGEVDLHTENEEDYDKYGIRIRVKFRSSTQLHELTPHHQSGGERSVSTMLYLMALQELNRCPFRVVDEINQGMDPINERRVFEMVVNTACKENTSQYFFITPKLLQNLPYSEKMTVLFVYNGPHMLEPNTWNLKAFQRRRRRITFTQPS

effect of a mutation on the interaction | Variant
decreasing interaction | G506R

Variants of: B2
Details: with smc6_schpo smc6, P53692

effect of a mutation on the interaction | Variant
decreasing interaction | G540R
